Measurements published in the supplement of paper PMC7125110.
± gives the standard error. For some assays here: Variants at the floor of the assay were thinned out.

B1: glmS ribozyme (parent)
chain: AUAAAAGCGCCAGAACUACAGAAAUGUAGUUGACGAGGAGGAGGUUUAUCGAAUUUUCGGCGGAUGCCUCCAAA

Columns and labels:
Conditions in all cases: with glucosamine-6-phosphate
[1] = variants of: B1; assay: kcat; higher = faster cleavage; RNA array
Method in brief: (§1)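 Barcoded glmS ribozyme variants on sequenced MiSeq chips were transcribed in situ by E. coli RNA polymerase and tracked through a hybridised Cy3 probe at 37 °C. Glucosamine-6-phosphate (40 μM to 10 mM) in HEPES/KCl/Mg(OAc)2 buffer was flowed in, and tiles were imaged over ~14 h. Signals were normalised to baseline and to non-cleaving reference variants; per-tile medians were fit to one- or two-exponential decays to give kobs. kcat and KM came from weighted Michaelis–Menten fits across concentrations.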

[2] = variants of: B1; assay: KM; higher = weaker cofactor use; RNA array
Method in brief: as §1

[3] = variants of: B1; assay: self-cleavage kobs at 160 uM GlcN6P; higher = faster cleavage; RNA array
Method in brief: as §1

[4] = variants of: B1; assay: self-cleavage kobs at 640 uM GlcN6P; higher = faster cleavage; RNA array
Method in brief: as §1

[5] = variants of: B1; assay: self-cleavage kobs at 2500 uM GlcN6P; higher = faster cleavage; RNA array
Method in brief: as §1

[6] = variants of: B1; assay: self-cleavage kobs at 10000 uM GlcN6P; higher = faster cleavage; RNA array
Method in brief: as §1

[7] = variants of: B1; assay: self-cleavage kobs at 40 uM GlcN6P; higher = faster cleavage; RNA array
Method in brief: as §1

| Variant | kcat [1] [s⁻¹] | KM [2] [µM] | self-cleavage kobs at 160 uM GlcN6P [3] [s⁻¹] | self-cleavage kobs at 640 uM GlcN6P [4] [s⁻¹] | self-cleavage kobs at 2500 uM GlcN6P [5] [s⁻¹] | self-cleavage kobs at 10000 uM GlcN6P [6] [s⁻¹] | self-cleavage kobs at 40 uM GlcN6P [7] [s⁻¹] |
| --- | --- | --- | --- | --- | --- | --- | --- |
| A12C A15U C16U C70U | 0.000185 ± 1.8e-05 | 514 ± 130 | 5.1e-05 ± 1.8e-05 | 9.57e-05 ± 2.2e-05 | 0.000148 ± 5e-05 | 0.000188 ± 4.7e-05 | – |
| G13A G29U | 5.33e-05 ± 7.9e-06 | – | – | – | 4.84e-05 ± 1e-05 | 4.7e-05 ± 8e-06 | – |
| A12C C50A U56A | < 1e-05 | – | – | < 1e-05 | – | – | – |
| A12G U55G | 0.00137 ± 0.00037 | 6630 ± 3200 | – | 0.000113 ± 1.7e-05 | 0.000784 ± 0.00017 | 0.000815 ± 5.8e-05 | – |
| G13A C70U | 0.000795 ± 0.00019 | 2410 ± 870 | 7.83e-05 ± 1.4e-05 | 0.000154 ± 1.7e-05 | 0.000388 ± 6.1e-05 | 0.000676 ± 9.5e-05 | – |
| A12C C34A | < 1e-05 | – | < 1e-05 | < 1e-05 | < 1e-05 | – | < 1e-05 |
| A12C G62U C70G | 2.02e-05 ± 4.5e-06 | – | – | – | – | – | – |
| C11U G66U | 4.89e-05 ± 2.1e-05 | – | – | – | 6.45e-05 ± 1e-05 | 2.69e-05 ± 1.2e-05 | < 1e-05 |
| A12G C70G | 0.000171 ± 1.5e-05 | 856 ± 240 | – | 7.9e-05 ± 1e-05 | 0.000109 ± 1.6e-05 | 0.000166 ± 1.6e-05 | – |
| A12G G38U A39U | < 1e-05 | – | – | < 1e-05 | – | – | < 1e-05 |
| A12G U56A | 0.00105 ± 0.00021 | 7960 ± 2300 | 4.26e-05 ± 1.7e-05 | 7.85e-05 ± 1.1e-05 | 0.000221 ± 4.8e-05 | 0.000592 ± 6.2e-05 | – |
| A12C G40U | 0.00214 ± 0.00032 | 2490 ± 550 | 0.000109 ± 1.2e-05 | 0.000471 ± 5e-05 | 0.0012 ± 0.00012 | 0.00165 ± 0.00013 | 4.4e-05 ± 6.1e-06 |
| A12C G40C | 0.000942 ± 0.00014 | 2310 ± 620 | 5.51e-05 ± 8.5e-06 | 0.0002 ± 6.3e-05 | 0.000666 ± 0.00012 | 0.000746 ± 6.8e-05 | 3.01e-05 ± 9.1e-06 |
| G13A A53U C58A | 0.000493 ± 0.00022 | – | – | 6.46e-05 ± 1.6e-05 | 0.000366 ± 0.0001 | 0.000332 ± 8.4e-05 | – |
| A12G C67G C68A | 6.18e-05 ± 2.3e-05 | – | 6.68e-05 ± 1.8e-05 | 0.000113 ± 2.6e-05 | 6.87e-05 ± 1.8e-05 | – | – |
| C11U U46C | 7.67e-05 ± 2e-05 | – | – | 3.45e-05 ± 1.3e-05 | 3.71e-05 ± 9.8e-06 | 6.92e-05 ± 1.1e-05 | < 1e-05 |
| G13A C71U | 0.00103 ± 0.00012 | 4730 ± 920 | 2.52e-05 ± 8.2e-06 | 0.000138 ± 2e-05 | 0.000358 ± 5.1e-05 | 0.000698 ± 5.9e-05 | – |

| Variant | kcat [1] [s⁻¹] | KM [2] [µM] | self-cleavage kobs at 160 uM GlcN6P [3] [s⁻¹] | self-cleavage kobs at 640 uM GlcN6P [4] [s⁻¹] | self-cleavage kobs at 2500 uM GlcN6P [5] [s⁻¹] | self-cleavage kobs at 10000 uM GlcN6P [6] [s⁻¹] | self-cleavage kobs at 40 uM GlcN6P [7] [s⁻¹] |
| --- | --- | --- | --- | --- | --- | --- | --- |
| C11U U54A | 0.00189 ± 0.00049 | 1150 ± 470 | 0.000164 ± 3.1e-05 | 0.000876 ± 0.00016 | 0.00164 ± 0.00021 | 0.00149 ± 0.00021 | 8.46e-05 ± 1.3e-05 |
| A12U G60U G66C C68U | < 1e-05 | – | – | – | – | < 1e-05 | – |
| G13A C16A | 0.000316 ± 9.2e-06 | – | – | – | 4.78e-05 ± 7.4e-06 | 0.000132 ± 1.9e-05 | – |
| A12U G66C | 0.00201 ± 0.00014 | 1270 ± 160 | – | 0.00058 ± 0.00016 | 0.00145 ± 0.00028 | 0.00177 ± 0.00022 | 6.36e-05 ± 1.1e-05 |
| A12G G37U | < 1e-05 | – | – | – | – | < 1e-05 | – |
| A12C U45A | 0.0415 ± 0.0022 | 1690 ± 110 | 0.00352 ± 0.00099 | 0.0118 ± 0.003 | 0.0233 ± 0.0073 | 0.037 ± 0.013 | 0.000958 ± 0.00019 |
| A12U U31C | 0.011 ± 0.0038 | 2070 ± 880 | 0.000727 ± 0.00017 | 0.00178 ± 0.00062 | – | 0.0101 ± 0.0026 | 0.000254 ± 4.3e-05 |
| A12C U54G G66U | 0.00175 ± 0.00085 | – | 8.77e-05 ± 1.3e-05 | 0.000245 ± 5.3e-05 | 0.000495 ± 0.00014 | 0.00164 ± 0.00028 | 5.6e-05 ± 1.7e-05 |
| A12U G43C | 1.4e-05 ± 1.4e-06 | 6950 ± 1500 | < 1e-05 | < 1e-05 | – | – | – |
| A12C G13U | 0.000279 ± 2.1e-05 | 6200 ± 850 | – | 2.43e-05 ± 6.8e-06 | 8.18e-05 ± 1e-05 | 0.000172 ± 1.6e-05 | – |
| A12U C67U C70G | 2.06e-05 ± 6.6e-06 | – | – | – | – | – | – |
| A12C C16U | 0.0121 ± 0.005 | – | 0.001 ± 0.00018 | 0.00435 ± 0.00065 | 0.0065 ± 0.0011 | 0.016 ± 0.0022 | 0.000543 ± 4.7e-05 |
| A12C U47A G60A | < 1e-05 | – | – | – | – | – | – |
| A12C A23C U54G C70A | 0.00013 ± 1.8e-05 | – | – | 0.000146 ± 2.1e-05 | 0.000103 ± 1.9e-05 | 0.000154 ± 2.8e-05 | 8.19e-05 ± 2.8e-05 |
| A12C U65A | 0.00216 ± 0.00024 | 2790 ± 570 | 0.000134 ± 3.3e-05 | 0.000345 ± 6.5e-05 | 0.000932 ± 0.00017 | 0.00173 ± 0.00015 | 3.82e-05 ± 8.1e-06 |
| A12U C61G | < 1e-05 | – | – | – | – | – | < 1e-05 |
